From patent publication US20240261333A1, “NOVEL TARGETS FOR ENHANCING ANTI-TUMOR IMMUNITY” (THE BROAD INSTITUTE, INC., priority 2021, published 2024)

Tests used:
Experiment in all cases: co-IP/MS, IgG control IP of N-FLAG B3GNT2 cell lysate
[1] = biological target: ATP1A1 (human) (UniProt P05023)
[2] = biological target: CALU (human) (UniProt O43852)
[3] = biological target: CANX (human) (UniProt P27824)
[4] = biological target: CAPZA1 (human) (UniProt P52907)
[5] = biological target: CAPZB (human) (UniProt P47756)
[6] = biological target: CKAP4 (human) (UniProt Q07065)
Sequence of CKAP4 (human) (Q07065 whole entry): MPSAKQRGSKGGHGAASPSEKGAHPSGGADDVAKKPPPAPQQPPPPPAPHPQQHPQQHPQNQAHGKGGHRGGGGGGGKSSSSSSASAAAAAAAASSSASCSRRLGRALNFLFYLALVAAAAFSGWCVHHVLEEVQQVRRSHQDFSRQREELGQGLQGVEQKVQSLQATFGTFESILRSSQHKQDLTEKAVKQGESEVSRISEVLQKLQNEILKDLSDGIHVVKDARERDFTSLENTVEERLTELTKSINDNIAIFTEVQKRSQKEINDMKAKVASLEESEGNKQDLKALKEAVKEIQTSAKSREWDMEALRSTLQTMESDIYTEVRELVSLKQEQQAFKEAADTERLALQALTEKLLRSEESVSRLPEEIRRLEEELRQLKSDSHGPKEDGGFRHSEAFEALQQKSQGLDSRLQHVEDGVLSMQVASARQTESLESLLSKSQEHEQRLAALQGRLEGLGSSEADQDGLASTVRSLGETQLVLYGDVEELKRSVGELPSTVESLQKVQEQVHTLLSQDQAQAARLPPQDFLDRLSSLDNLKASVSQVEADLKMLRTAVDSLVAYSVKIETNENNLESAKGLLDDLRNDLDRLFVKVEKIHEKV

[7] = biological target: DNAJA1 (human) (UniProt P31689)
[8] = biological target: ERLIN1 (human) (UniProt O75477)
Sequence of ERLIN1 (human) (O75477 whole entry): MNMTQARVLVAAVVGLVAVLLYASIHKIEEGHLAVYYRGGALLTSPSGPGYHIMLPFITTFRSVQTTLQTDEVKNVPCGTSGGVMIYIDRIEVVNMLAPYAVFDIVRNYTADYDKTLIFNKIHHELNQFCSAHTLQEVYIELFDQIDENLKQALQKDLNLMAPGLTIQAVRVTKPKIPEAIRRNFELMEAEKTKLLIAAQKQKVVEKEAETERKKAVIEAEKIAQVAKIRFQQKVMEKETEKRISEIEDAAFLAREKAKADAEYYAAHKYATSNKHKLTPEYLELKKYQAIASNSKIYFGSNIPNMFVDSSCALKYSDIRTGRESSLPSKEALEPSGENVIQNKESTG

[9] = biological target: ERLIN2 (human) (UniProt O94905)
[10] = biological target: FAM3C (human) (UniProt Q92520)
[11] = biological target: FKBP10 (human) (UniProt Q96AY3)
[12] = biological target: GCN1 (human) (UniProt Q92616)
[13] = biological target: HSD17B12 (human) (UniProt Q53GQ0)
Sequence of HSD17B12 (human) (Q53GQ0 whole entry): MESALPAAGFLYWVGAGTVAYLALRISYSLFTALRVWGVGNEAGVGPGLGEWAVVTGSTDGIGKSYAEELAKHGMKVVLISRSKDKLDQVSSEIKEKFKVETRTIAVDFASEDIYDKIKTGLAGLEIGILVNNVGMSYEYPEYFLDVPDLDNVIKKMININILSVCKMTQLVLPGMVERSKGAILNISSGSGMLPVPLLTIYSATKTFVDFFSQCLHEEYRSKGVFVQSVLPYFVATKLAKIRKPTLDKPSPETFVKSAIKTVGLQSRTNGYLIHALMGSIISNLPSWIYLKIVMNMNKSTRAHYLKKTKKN

[14] = biological target: IPO4 (human) (UniProt Q8TEX9)
Sequence of IPO4 (human) (Q8TEX9 whole entry): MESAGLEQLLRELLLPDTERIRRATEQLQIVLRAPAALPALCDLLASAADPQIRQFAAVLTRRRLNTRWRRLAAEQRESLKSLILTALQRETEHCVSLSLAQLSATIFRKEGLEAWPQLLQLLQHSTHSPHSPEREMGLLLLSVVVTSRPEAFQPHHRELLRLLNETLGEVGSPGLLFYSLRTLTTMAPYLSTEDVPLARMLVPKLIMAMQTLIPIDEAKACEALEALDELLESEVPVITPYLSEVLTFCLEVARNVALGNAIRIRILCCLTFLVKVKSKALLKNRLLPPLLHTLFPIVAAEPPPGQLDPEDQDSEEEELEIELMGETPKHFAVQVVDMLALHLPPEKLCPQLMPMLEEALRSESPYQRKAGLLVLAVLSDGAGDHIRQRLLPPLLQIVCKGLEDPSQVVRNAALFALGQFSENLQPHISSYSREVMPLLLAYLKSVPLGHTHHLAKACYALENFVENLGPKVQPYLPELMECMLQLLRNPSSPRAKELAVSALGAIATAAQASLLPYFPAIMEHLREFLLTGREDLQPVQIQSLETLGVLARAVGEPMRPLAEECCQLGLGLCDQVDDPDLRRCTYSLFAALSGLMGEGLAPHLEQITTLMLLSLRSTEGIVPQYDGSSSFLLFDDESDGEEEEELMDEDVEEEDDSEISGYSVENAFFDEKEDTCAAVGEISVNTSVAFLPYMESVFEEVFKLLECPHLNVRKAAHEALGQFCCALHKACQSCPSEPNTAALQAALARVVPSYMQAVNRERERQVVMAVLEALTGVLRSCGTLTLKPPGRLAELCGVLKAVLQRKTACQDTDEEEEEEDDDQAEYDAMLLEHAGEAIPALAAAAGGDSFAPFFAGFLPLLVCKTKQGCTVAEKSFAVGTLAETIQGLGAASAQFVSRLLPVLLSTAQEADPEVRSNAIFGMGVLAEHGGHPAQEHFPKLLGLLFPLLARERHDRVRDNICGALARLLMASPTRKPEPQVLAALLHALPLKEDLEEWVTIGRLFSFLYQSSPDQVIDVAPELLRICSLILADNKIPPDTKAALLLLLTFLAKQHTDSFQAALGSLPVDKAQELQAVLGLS

[15] = biological target: LRP1 (human) (UniProt Q07954)
[16] = biological target: PCBP1 (human) (UniProt Q15365)
[17] = biological target: PDIA6 (human) (UniProt Q15084)
Sequence of PDIA6 (human) (Q15084 20-440 limits assumed): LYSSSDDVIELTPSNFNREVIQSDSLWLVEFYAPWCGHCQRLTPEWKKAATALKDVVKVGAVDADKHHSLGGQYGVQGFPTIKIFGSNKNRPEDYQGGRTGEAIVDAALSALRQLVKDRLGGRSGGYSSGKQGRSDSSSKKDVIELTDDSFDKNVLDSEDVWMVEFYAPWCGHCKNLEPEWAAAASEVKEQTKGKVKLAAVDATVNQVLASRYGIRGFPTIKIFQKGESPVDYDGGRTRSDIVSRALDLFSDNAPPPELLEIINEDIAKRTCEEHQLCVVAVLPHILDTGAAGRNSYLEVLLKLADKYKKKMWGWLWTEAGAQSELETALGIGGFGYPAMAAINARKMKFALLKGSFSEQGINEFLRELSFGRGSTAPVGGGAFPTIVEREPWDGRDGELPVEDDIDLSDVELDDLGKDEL

[18] = biological target: PIP (human) (UniProt P12273)
Sequence of PIP (human) (P12273 29-146 limits assumed): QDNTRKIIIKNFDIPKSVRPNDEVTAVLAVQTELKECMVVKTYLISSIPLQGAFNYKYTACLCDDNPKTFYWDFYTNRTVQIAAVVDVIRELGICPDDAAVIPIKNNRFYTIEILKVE

[19] = biological target: PRDX1 (human) (UniProt Q06830)
Sequence of PRDX1 (human) (Q06830 2-199 limits assumed): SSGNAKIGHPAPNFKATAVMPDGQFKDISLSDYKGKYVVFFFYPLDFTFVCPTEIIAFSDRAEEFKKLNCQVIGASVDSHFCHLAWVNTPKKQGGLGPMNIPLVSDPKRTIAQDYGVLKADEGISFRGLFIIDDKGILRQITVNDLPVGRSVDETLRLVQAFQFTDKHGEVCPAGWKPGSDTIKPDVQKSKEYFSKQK

[20] = biological target: PRDX2 (human) (UniProt P32119)
[21] = biological target: RCN2 (human) (UniProt Q14257)
Sequence of RCN2 (human) (Q14257 other isoform, or with tags, fused parts or gaps limits assumed): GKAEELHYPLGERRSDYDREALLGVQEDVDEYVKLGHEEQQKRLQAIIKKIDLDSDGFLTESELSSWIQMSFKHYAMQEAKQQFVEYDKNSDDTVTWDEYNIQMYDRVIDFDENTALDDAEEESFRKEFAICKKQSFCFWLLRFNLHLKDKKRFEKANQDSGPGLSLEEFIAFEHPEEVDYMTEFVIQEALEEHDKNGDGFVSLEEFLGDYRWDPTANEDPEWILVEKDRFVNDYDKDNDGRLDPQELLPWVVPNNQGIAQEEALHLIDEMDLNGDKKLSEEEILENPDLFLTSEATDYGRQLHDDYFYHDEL

[22] = biological target: RPL12 (human) (UniProt P30050)
[23] = biological target: RPL13A (human) (UniProt P40429)
[24] = biological target: RPL14 (human) (UniProt P50914)
[25] = biological target: RPL23A (human) (UniProt P62750)
[26] = biological target: RPL24 (human) (UniProt P83731)
[27] = biological target: RPL30 (human) (UniProt P62888)
[28] = biological target: RPLPO (human) (UniProt P05388)
[29] = biological target: RPS12 (human) (UniProt P25398)
[30] = biological target: RPS15 (human) (UniProt P62841)
[31] = biological target: RPS3A (human) (UniProt P61247)
[32] = biological target: RPS5 (human) (UniProt P46782)
[33] = biological target: RPS9 (human) (UniProt P46781)
[34] = biological target: SLC25A4 (human) (UniProt P12235)
Sequence of SLC25A4 (human) (P12235 2-298 limits assumed): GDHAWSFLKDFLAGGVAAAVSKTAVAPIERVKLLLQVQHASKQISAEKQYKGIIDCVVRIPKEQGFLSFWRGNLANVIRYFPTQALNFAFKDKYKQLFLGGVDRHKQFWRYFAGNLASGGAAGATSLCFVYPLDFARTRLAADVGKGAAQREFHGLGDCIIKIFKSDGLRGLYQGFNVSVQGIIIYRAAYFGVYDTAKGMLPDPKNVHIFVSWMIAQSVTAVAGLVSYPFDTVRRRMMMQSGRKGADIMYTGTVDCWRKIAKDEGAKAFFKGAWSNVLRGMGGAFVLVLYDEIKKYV

[35] = biological target: SQSTM1 (human) (UniProt Q13501)
[36] = biological target: TGM3 (human) (UniProt Q08188)
[37] = biological target: TUBB (human) (UniProt P07437)
Sequence of TUBB (human) (P07437 whole entry): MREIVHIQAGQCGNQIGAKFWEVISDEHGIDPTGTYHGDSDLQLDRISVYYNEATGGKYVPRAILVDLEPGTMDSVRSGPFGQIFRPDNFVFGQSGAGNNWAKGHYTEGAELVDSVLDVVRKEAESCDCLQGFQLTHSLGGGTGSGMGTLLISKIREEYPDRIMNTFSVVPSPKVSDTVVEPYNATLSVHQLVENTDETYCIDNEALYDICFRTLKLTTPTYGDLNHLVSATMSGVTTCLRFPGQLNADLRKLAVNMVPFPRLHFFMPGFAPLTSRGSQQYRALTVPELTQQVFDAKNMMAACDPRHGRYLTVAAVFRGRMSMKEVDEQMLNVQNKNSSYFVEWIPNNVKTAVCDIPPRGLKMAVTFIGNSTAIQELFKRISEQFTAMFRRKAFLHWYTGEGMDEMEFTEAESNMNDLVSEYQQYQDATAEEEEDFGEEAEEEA

[38] = biological target: UQCRC2 (human) (UniProt P22695)
Sequence of UQCRC2 (human) (P22695 15-453 limits assumed): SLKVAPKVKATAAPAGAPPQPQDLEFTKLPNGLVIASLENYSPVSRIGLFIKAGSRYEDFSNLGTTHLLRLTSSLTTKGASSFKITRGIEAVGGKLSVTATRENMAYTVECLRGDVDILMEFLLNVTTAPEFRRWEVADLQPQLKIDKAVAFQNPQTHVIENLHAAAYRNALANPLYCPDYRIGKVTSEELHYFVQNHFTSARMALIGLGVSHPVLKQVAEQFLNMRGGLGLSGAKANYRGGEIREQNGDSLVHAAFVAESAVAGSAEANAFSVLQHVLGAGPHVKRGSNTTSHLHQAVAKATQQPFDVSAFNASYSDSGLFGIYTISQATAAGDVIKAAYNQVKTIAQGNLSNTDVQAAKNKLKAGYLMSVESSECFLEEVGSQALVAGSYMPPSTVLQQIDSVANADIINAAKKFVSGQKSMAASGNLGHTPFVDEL

Measured: co-IP mass spectrometry count

Sequence of CALU (human) (O43852 20-315 limits assumed): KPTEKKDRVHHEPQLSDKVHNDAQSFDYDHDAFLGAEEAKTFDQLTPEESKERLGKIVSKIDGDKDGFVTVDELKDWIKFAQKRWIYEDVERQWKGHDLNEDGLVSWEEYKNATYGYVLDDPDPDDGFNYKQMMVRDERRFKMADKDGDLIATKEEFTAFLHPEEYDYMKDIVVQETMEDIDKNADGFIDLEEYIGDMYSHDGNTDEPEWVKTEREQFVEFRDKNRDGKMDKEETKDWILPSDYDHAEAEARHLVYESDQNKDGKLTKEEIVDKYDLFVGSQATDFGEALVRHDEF

IgG control (Millipore Sigma 12-371) (antibody)
6: [27]
7: [24]
2: [5] | [36]
10: [37]
4: [22] | [26]
3: [25] | [32] | [33]
9: [31]
5: [19] | [20] | [30]
0: all other assays above
